The text below walks through data of article PMC7660097.

pKd: −log10 of the molar value.

Usually pKd stands for the Kd on a negative log10 scale, so that one unit is a factor of ten. Low values mean a high Kd, high ones a low Kd. The koff is the rate constant with which the complex falls apart. Low values mean slow dissociation, high ones fast dissociation. A word on the kon: it is the rate constant with which the complex forms. The low end stands for slower complex formation, the high end for faster complex formation.

In experiment [1] the target is C. albicans cell surface-exposed enolase (C. albicans) (UniProt P30575). The experiment is described as follows: SPR; BIACORE 3000; enolase amine-coupled to a CM5 chip (about 300 RU); human protein as analyte (40-750 nM or 75-750 nM), 30 µL/min, 25 °C, 10 mM HEPES, 150 mM NaCl, 0.005% P20, pH 7.4; 1:1 Langmuir global fit with baseline drift and local Rmax; regeneration 1 M NaCl. For orientation: Surface plasmon resonance follows binding to a sensor surface in real time, without labels.

In experiment [2] the target is C. albicans cytosolic enolase (C. albicans) (UniProt P30575). Described as above.
Experiment [3] concerns the target C. tropicalis cytosolic enolase (C. tropicalis) (UniProt C5MD83). The experiment is described as above.
For experiment [4], the target named is human fibronectin (human). Description: ELISA; microplate ligand-binding assay, semi-quantitative: 3 pmol human protein immobilised per MaxiSorp well, blocked with 3% BSA; biotin-labeled enolase 10-500 nM in PBS, 1.5 h, 37 °C; detection with SA-HRP/TMB; BSA-only wells subtracted.
Experiment [5] deals with human plasminogen (human). Described as above.
For experiment [6], the target named is human vitronectin (human) (UniProt P04004). Described as above.
Experiment [7] has as its target C. albicans cytosolic enolase (C. albicans) (UniProt P30575). Description: ELISA; competition in a microplate: VTR immobilised (3 pmol per well); 40 nM biotinylated C. albicans enolase and 400 nM unlabeled HPG added together in PBS, 1.5 h, 37 °C; SA-HRP/TMB; also with 5 mM Mg2+ (no effect).

human vitronectin (human), sequence (P04004 20-478): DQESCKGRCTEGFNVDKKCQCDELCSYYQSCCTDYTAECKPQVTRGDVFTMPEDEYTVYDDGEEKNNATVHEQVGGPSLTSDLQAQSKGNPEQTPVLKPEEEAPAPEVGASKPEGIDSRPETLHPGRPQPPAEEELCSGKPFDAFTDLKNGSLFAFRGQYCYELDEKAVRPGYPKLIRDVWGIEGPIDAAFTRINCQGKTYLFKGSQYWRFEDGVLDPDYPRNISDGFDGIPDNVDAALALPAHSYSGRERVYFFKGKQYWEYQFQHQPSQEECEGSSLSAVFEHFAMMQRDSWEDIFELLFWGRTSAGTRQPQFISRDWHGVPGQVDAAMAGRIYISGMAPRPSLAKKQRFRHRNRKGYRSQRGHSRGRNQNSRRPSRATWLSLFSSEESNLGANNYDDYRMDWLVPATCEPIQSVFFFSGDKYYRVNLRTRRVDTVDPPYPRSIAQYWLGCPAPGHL

In the case of human fibronectin (natural protein), the pKd in experiment [1] was 7.43; in experiment [2], 7.37; in experiment [3], 7.29. The values for the dissociation rate constant (koff) in experiment [1], in experiment [2] and in experiment [3] were 0.00222 s⁻¹, 0.0277 s⁻¹ and 0.00284 s⁻¹, respectively. For the same substance, the values for the kon in experiment [1], in experiment [2] and in experiment [3] were 60300 M⁻¹ s⁻¹, 647000 M⁻¹ s⁻¹ and 54800 M⁻¹ s⁻¹, respectively.

As for “recombinant C. albicans enolase with the 235-255 sequence of S. cerevisiae enolase (R-Enosc) (from UniProt P30575 1-440) (enzyme)”, the reduction in binding compared to R-Eno in experiment [4], in experiment [5] and in experiment [6] was more than 50% in each case.

The substance human plasminogen (natural protein) showed a reduction of the binding of biotinylated enolase to immobilized VTR in experiment [7] of 50%. Besides, the pKd was 6.92 in experiment [1], 6.59 in experiment [2] and 6.60 in experiment [3]. Moreover, the values for the off-rate constant (koff) in experiment [1], in experiment [2] and in experiment [3] were 0.0626 s⁻¹, 0.0693 s⁻¹ and 0.0146 s⁻¹, respectively. Moreover, the kon in experiment [1] came to 522000 M⁻¹ s⁻¹; in experiment [2] it was 270000 M⁻¹ s⁻¹; in experiment [3] it was 57700 M⁻¹ s⁻¹.
